Assay results taken from patent US20160208274.

Test system: fibrin (formed in the agarose plate from fibrinogen and thrombin)

recombinant Desmodus rotundus salivary plasminogen activator alpha2 (DSPAα2) from transgenic T1 tobacco seeds, with C-terminal 6xHis tag and KDEL
fibrin degradation: recombinant proteins t-PA, DSPAα1 and DSPAα2 produced in this manner can degrade fibrin
